US20090324606A1 (published 2009)

How the values were obtained:
Assay in all cases: ELISA, antigen coated at 10 µg/ml
[1] = molecular target: T1, botulinum neurotoxin serotype E (BoNT/E) (UniProt Q00496 2-1251)
T1 sequence: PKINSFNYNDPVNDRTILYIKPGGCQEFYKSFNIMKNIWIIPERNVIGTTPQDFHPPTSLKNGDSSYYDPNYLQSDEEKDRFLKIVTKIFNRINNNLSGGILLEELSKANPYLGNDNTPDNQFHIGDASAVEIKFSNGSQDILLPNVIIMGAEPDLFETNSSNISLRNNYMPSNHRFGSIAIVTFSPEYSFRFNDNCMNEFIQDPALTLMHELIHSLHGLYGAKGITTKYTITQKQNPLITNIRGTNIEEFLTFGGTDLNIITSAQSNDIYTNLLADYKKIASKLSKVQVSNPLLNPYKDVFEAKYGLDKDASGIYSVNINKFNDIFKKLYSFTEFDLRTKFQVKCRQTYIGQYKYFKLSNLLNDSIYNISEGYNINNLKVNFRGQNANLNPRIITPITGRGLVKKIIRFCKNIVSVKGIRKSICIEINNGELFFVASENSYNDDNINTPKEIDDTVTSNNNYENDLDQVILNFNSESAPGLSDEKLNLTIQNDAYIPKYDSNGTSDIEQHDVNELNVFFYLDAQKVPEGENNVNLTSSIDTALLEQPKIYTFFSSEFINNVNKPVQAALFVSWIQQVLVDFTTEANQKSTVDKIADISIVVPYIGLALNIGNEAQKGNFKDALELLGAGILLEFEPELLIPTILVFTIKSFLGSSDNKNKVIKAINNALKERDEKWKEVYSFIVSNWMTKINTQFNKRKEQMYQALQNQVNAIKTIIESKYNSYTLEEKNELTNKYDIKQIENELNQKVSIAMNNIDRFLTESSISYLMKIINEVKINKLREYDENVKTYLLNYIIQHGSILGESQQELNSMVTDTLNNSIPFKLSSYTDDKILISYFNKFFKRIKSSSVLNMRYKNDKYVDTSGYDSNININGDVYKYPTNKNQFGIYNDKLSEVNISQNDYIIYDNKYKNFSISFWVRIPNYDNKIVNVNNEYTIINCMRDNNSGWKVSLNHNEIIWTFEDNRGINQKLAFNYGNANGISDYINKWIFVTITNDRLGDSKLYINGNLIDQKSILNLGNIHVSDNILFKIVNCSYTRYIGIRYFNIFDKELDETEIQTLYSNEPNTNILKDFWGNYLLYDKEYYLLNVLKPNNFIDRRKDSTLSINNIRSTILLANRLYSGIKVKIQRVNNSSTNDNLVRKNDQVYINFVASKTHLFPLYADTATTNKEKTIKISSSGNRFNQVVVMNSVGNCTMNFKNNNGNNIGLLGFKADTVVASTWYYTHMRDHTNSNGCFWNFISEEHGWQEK

[2] = molecular target: T2, botulinum neurotoxin serotype B (BoNT/B) (UniProt P10844 2-1291)
T2 sequence: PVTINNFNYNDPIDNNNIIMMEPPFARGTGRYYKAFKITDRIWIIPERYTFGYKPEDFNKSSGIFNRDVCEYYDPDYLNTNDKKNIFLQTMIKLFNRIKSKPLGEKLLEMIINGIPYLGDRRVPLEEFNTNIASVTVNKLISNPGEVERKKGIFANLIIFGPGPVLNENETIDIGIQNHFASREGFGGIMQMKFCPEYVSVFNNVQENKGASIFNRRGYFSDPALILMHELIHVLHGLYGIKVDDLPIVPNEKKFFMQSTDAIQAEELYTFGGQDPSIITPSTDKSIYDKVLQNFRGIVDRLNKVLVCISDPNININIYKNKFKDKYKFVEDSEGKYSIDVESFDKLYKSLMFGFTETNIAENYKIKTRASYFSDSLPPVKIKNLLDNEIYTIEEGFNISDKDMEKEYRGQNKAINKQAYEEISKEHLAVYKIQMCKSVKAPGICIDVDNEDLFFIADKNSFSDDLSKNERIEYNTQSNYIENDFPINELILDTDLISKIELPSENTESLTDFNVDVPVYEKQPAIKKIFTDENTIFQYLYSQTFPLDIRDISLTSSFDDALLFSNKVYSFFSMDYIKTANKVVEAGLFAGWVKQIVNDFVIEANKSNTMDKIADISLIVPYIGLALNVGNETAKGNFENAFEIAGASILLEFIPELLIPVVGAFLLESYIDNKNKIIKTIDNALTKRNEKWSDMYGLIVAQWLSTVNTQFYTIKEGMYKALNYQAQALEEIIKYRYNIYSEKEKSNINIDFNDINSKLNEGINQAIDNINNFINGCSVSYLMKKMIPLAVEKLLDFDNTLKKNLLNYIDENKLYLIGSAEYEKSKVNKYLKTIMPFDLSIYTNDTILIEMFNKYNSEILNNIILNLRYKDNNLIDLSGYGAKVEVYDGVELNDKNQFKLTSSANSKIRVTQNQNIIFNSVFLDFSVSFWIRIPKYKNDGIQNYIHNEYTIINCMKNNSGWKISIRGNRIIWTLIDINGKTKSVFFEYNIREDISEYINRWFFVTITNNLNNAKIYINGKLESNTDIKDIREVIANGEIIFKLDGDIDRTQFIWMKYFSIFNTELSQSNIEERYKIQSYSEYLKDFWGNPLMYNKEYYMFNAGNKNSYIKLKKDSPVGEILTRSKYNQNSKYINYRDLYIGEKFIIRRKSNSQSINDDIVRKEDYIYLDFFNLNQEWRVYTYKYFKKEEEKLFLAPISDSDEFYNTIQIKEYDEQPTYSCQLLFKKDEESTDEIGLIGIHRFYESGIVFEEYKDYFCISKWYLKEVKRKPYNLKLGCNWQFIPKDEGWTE

[3] = molecular target: T3, botulinum neurotoxin serotype C (BoNT/C) (UniProt P18640 2-1291)
T3 sequence: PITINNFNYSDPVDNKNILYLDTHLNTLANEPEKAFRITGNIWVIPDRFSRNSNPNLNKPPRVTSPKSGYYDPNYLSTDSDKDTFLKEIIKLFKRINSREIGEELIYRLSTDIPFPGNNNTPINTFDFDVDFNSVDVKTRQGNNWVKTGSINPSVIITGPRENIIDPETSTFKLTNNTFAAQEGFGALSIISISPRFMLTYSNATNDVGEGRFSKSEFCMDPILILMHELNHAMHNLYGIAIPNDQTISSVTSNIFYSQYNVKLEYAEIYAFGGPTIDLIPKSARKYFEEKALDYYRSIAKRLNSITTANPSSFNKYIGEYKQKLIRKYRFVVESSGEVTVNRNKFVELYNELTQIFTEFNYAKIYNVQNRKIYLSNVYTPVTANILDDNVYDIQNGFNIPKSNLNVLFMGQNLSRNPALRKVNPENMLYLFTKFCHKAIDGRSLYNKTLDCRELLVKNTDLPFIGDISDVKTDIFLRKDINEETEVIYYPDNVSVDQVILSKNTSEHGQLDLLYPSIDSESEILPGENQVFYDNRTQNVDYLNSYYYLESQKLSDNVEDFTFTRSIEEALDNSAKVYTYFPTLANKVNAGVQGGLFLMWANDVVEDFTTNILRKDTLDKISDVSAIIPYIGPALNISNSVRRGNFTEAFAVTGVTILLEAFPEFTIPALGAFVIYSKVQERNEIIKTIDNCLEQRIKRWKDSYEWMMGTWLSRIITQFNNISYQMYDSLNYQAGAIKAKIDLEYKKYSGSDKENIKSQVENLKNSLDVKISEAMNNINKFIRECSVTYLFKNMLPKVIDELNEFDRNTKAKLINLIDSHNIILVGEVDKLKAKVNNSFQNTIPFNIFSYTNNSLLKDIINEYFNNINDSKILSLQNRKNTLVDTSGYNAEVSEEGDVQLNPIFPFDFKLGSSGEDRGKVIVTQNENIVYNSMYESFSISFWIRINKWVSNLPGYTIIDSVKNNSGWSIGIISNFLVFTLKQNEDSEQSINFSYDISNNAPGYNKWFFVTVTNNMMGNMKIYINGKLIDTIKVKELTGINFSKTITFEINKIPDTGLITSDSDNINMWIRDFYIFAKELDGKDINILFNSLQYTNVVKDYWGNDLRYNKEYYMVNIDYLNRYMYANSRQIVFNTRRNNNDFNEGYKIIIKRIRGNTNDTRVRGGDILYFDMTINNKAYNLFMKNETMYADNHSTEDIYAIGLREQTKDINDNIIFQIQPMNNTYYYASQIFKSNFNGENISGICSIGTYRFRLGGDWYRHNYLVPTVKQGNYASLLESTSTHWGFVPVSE

[4] = molecular target: BoNT/A HN, recombinant translocation domain of botulinum neurotoxin serotype A (Clostridium botulinum, UniProt P0DPI0 449-870)

Measured: binding result

Chain of BoNT/A HN, recombinant translocation domain of botulinum neurotoxin serotype A (P0DPI0 449-870 limits assumed): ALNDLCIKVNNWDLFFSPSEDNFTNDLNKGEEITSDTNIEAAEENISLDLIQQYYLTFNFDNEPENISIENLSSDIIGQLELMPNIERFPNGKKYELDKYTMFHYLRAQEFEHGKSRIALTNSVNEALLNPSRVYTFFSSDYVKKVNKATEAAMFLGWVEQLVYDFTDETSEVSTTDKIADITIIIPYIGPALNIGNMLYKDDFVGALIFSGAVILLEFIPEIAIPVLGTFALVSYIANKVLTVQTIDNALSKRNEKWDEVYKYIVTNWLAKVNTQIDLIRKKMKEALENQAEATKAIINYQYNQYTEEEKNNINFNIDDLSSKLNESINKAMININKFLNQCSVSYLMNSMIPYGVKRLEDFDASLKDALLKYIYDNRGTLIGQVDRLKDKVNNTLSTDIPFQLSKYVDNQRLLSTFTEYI

B1: scFv 3D12 (human, immune library) (scFv, V domains shown)
VH: QVQLVQSGGGVVHPGRSLKLSCAGSGFTFSDYDMHWVRQAPGKGLEWVAVMWFDGTEKYSAESVKGRFTISRDNSKNTLFLQMNSLRADDTAVYYCAREPDWLLWGDRGALDVWGQGTTVTVSS
VL: DIVMTQSPSTLSASVGDRVTITCRASQSISSWLAWYQQKPGKAPKLLMYEASSLESGVPSRFSGSGSGTEFTLTISSLQPDDFAAYYCQHYNTYPYTFGQGTKLEIKR
no binding: all assays above
